Measured values taken from patent US20200131230A1 (published 2020).
Where two headings read alike, the source gives them in different places. Positions of bridges follow the written chain, without caps; N, C: chain ends. Non-standard residues stand in square brackets, D forms with d. 2Nal = N[C@@H](Cc1ccc2ccccc2c1)C(=O)O; Phg = N[C@H](C(=O)O)c1ccccc1; Tle = CC(C)(C)[C@H](N)C(=O)O; Nle = CCCC[C@H](N)C(=O)O; AMF = not defined here

B1: Compound 3 (peptide)
peptide: {CH2CO}-FISGRNWVKWVC-NH2
modifications: thioether N-12
SMILES: CC[C@H](C)[C@@H]1NC(=O)[C@H](Cc2ccccc2)NC(=O)CSC[C@@H](C(N)=O)NC(=O)[C@H](C(C)C)NC(=O)[C@H](Cc2c[nH]c3ccccc23)NC(=O)[C@H](CCCCN)NC(=O)[C@H](C(C)C)NC(=O)[C@H](Cc2c[nH]c3ccccc23)NC(=O)[C@H](CC(N)=O)NC(=O)[C@H](CCCNC(=N)N)NC(=O)CNC(=O)[C@H](CO)NC1=O
B2: Compound 2 (peptide)
peptide: {CH2CO}-FRSGRNWVVWVC-NH2
modifications: thioether N-12
SMILES: CC(C)[C@@H]1NC(=O)[C@H](Cc2c[nH]c3ccccc23)NC(=O)[C@H](C(C)C)NC(=O)[C@H](C(C)C)NC(=O)[C@H](Cc2c[nH]c3ccccc23)NC(=O)[C@H](CC(N)=O)NC(=O)[C@H](CCCNC(=N)N)NC(=O)CNC(=O)[C@H](CO)NC(=O)[C@H](CCCNC(=N)N)NC(=O)[C@H](Cc2ccccc2)NC(=O)CSC[C@@H](C(N)=O)NC1=O
B3: Compound 11 (peptide)
peptide: {CH2CO}-WISGRNWVRWVC-NH2
modifications: thioether N-12
SMILES: CC[C@H](C)[C@@H]1NC(=O)[C@H](Cc2c[nH]c3ccccc23)NC(=O)CSC[C@@H](C(N)=O)NC(=O)[C@H](C(C)C)NC(=O)[C@H](Cc2c[nH]c3ccccc23)NC(=O)[C@H](CCCNC(=N)N)NC(=O)[C@H](C(C)C)NC(=O)[C@H](Cc2c[nH]c3ccccc23)NC(=O)[C@H](CC(N)=O)NC(=O)[C@H](CCCNC(=N)N)NC(=O)CNC(=O)[C@H](CO)NC1=O
B4: Compound 7 (peptide)
peptide: {CH2CO}-FISGKNWVKWVC-NH2
modifications: thioether N-12
SMILES: CC[C@H](C)[C@@H]1NC(=O)[C@H](Cc2ccccc2)NC(=O)CSC[C@@H](C(N)=O)NC(=O)[C@H](C(C)C)NC(=O)[C@H](Cc2c[nH]c3ccccc23)NC(=O)[C@H](CCCCN)NC(=O)[C@H](C(C)C)NC(=O)[C@H](Cc2c[nH]c3ccccc23)NC(=O)[C@H](CC(N)=O)NC(=O)[C@H](CCCCN)NC(=O)CNC(=O)[C@H](CO)NC1=O
B5: Compound 6 (peptide)
peptide: {CH2CO}-FRSGRNWVKWVC-NH2
modifications: thioether N-12
SMILES: CC(C)[C@@H]1NC(=O)[C@H](Cc2c[nH]c3ccccc23)NC(=O)[C@H](CCCCN)NC(=O)[C@H](C(C)C)NC(=O)[C@H](Cc2c[nH]c3ccccc23)NC(=O)[C@H](CC(N)=O)NC(=O)[C@H](CCCNC(=N)N)NC(=O)CNC(=O)[C@H](CO)NC(=O)[C@H](CCCNC(=N)N)NC(=O)[C@H](Cc2ccccc2)NC(=O)CSC[C@@H](C(N)=O)NC1=O
B6: Compound 9 (peptide)
peptide: {CH2CO}-WISGRNWVKWVC-NH2
modifications: thioether N-12
SMILES: CC[C@H](C)[C@@H]1NC(=O)[C@H](Cc2c[nH]c3ccccc23)NC(=O)CSC[C@@H](C(N)=O)NC(=O)[C@H](C(C)C)NC(=O)[C@H](Cc2c[nH]c3ccccc23)NC(=O)[C@H](CCCCN)NC(=O)[C@H](C(C)C)NC(=O)[C@H](Cc2c[nH]c3ccccc23)NC(=O)[C@H](CC(N)=O)NC(=O)[C@H](CCCNC(=N)N)NC(=O)CNC(=O)[C@H](CO)NC1=O
B7: Compound 5 (peptide)
peptide: {CH2CO}-FISGRNWVRWRC-NH2
modifications: thioether N-12
SMILES: CC[C@H](C)[C@@H]1NC(=O)[C@H](Cc2ccccc2)NC(=O)CSC[C@@H](C(N)=O)NC(=O)[C@H](CCCNC(=N)N)NC(=O)[C@H](Cc2c[nH]c3ccccc23)NC(=O)[C@H](CCCNC(=N)N)NC(=O)[C@H](C(C)C)NC(=O)[C@H](Cc2c[nH]c3ccccc23)NC(=O)[C@H](CC(N)=O)NC(=O)[C@H](CCCNC(=N)N)NC(=O)CNC(=O)[C@H](CO)NC1=O
B8: Compound 1 (peptide)
peptide: {CH2CO}-FISGRNWVVWVC-NH2
modifications: thioether N-12
SMILES: CC[C@H](C)[C@@H]1NC(=O)[C@H](Cc2ccccc2)NC(=O)CSC[C@@H](C(N)=O)NC(=O)[C@H](C(C)C)NC(=O)[C@H](Cc2c[nH]c3ccccc23)NC(=O)[C@H](C(C)C)NC(=O)[C@H](C(C)C)NC(=O)[C@H](Cc2c[nH]c3ccccc23)NC(=O)[C@H](CC(N)=O)NC(=O)[C@H](CCCNC(=N)N)NC(=O)CNC(=O)[C@H](CO)NC1=O
B9: Compound 4 (peptide)
peptide: {CH2CO}-FISGRNWVRWVC-NH2
modifications: thioether N-12
SMILES: CC[C@H](C)[C@@H]1NC(=O)[C@H](Cc2ccccc2)NC(=O)CSC[C@@H](C(N)=O)NC(=O)[C@H](C(C)C)NC(=O)[C@H](Cc2c[nH]c3ccccc23)NC(=O)[C@H](CCCNC(=N)N)NC(=O)[C@H](C(C)C)NC(=O)[C@H](Cc2c[nH]c3ccccc23)NC(=O)[C@H](CC(N)=O)NC(=O)[C@H](CCCNC(=N)N)NC(=O)CNC(=O)[C@H](CO)NC1=O
B10: Compound 10 (peptide)
peptide: {CH2CO}-FISGKNWVRWVC-NH2
modifications: thioether N-12
SMILES: CC[C@H](C)[C@@H]1NC(=O)[C@H](Cc2ccccc2)NC(=O)CSC[C@@H](C(N)=O)NC(=O)[C@H](C(C)C)NC(=O)[C@H](Cc2c[nH]c3ccccc23)NC(=O)[C@H](CCCNC(=N)N)NC(=O)[C@H](C(C)C)NC(=O)[C@H](Cc2c[nH]c3ccccc23)NC(=O)[C@H](CC(N)=O)NC(=O)[C@H](CCCCN)NC(=O)CNC(=O)[C@H](CO)NC1=O
B11: Compound 49 (peptide)
peptide: {CH2CO}-[2Nal][Phg]SGRNWVKWVC-NH2
modifications: thioether N-12
SMILES: CC(C)[C@@H]1NC(=O)[C@H](Cc2c[nH]c3ccccc23)NC(=O)[C@H](CCCCN)NC(=O)[C@H](C(C)C)NC(=O)[C@H](Cc2c[nH]c3ccccc23)NC(=O)[C@H](CC(N)=O)NC(=O)[C@H](CCCNC(=N)N)NC(=O)CNC(=O)[C@H](CO)NC(=O)[C@H](c2ccccc2)NC(=O)[C@H](Cc2ccc3ccccc3c2)NC(=O)CSC[C@@H](C(N)=O)NC1=O
B12: Compound 48 (peptide)
peptide: {CH2CO}-[2Nal][Nle]SGRNWVKWVC-NH2
modifications: thioether N-12
SMILES: CCCC[C@@H]1NC(=O)[C@H](Cc2ccc3ccccc3c2)NC(=O)CSC[C@@H](C(N)=O)NC(=O)[C@H](C(C)C)NC(=O)[C@H](Cc2c[nH]c3ccccc23)NC(=O)[C@H](CCCCN)NC(=O)[C@H](C(C)C)NC(=O)[C@H](Cc2c[nH]c3ccccc23)NC(=O)[C@H](CC(N)=O)NC(=O)[C@H](CCCNC(=N)N)NC(=O)CNC(=O)[C@H](CO)NC1=O
B13: Compound 50 (peptide)
peptide: {CH2CO}-[2Nal][Tle]SGRNWVKWVC-NH2
modifications: thioether N-12
SMILES: CC(C)[C@@H]1NC(=O)[C@H](Cc2c[nH]c3ccccc23)NC(=O)[C@H](CCCCN)NC(=O)[C@H](C(C)C)NC(=O)[C@H](Cc2c[nH]c3ccccc23)NC(=O)[C@H](CC(N)=O)NC(=O)[C@H](CCCNC(=N)N)NC(=O)CNC(=O)[C@H](CO)NC(=O)[C@H](C(C)(C)C)NC(=O)[C@H](Cc2ccc3ccccc3c2)NC(=O)CSC[C@@H](C(N)=O)NC1=O
B14: Compound 39 (peptide)
peptide: {CH2CO}-[2Nal]ISGRNW[Nle]KWFC-NH2
modifications: thioether N-12
SMILES: CCCC[C@@H]1NC(=O)[C@H](Cc2c[nH]c3ccccc23)NC(=O)[C@H](CC(N)=O)NC(=O)[C@H](CCCNC(=N)N)NC(=O)CNC(=O)[C@H](CO)NC(=O)[C@H]([C@@H](C)CC)NC(=O)[C@H](Cc2ccc3ccccc3c2)NC(=O)CSC[C@@H](C(N)=O)NC(=O)[C@H](Cc2ccccc2)NC(=O)[C@H](Cc2c[nH]c3ccccc23)NC(=O)[C@H](CCCCN)NC1=O

Legend:
[1] = molecular target: T1, Thrombospondin human platelet (Calbiochem, 605225) (human, UniProt P07996 19-1170); test: cell-based or functional assay
T1 sequence (P07996 19-1170 limits assumed): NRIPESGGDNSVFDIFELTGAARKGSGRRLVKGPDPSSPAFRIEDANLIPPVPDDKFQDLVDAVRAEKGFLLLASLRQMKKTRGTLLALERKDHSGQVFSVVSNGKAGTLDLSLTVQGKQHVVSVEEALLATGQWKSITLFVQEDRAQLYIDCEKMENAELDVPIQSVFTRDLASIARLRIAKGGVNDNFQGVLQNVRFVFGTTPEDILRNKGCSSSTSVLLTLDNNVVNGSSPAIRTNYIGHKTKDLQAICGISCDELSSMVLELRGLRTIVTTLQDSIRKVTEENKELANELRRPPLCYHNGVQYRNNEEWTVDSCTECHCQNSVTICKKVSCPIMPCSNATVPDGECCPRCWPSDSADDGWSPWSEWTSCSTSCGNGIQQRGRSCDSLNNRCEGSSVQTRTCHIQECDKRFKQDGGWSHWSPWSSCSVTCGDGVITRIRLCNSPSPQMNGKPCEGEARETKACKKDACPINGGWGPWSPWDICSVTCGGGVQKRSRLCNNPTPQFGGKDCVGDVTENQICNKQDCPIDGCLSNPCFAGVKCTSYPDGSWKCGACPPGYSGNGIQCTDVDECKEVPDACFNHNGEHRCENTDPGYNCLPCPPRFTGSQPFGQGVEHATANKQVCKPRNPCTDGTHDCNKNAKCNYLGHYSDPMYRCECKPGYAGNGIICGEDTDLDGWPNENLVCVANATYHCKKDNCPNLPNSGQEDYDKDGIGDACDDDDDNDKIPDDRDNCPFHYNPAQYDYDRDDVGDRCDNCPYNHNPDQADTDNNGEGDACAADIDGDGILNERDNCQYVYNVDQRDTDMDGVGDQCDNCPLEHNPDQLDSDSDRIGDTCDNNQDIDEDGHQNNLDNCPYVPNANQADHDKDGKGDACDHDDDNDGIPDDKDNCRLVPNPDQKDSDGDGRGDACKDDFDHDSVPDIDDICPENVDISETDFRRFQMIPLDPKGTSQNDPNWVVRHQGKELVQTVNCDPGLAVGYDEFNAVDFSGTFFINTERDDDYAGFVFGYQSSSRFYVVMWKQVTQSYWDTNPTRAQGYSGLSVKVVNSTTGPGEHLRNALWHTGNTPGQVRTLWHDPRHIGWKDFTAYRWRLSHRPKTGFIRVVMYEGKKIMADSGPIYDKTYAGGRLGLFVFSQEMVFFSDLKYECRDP

[2] = molecular target: Recombinant-hTSP1 (human, UniProt P07996 19-1170, limits assumed); test: SPR (Biacore T200), single-cycle kinetics, recombinant hTSP1 immobilised on NTA chip
Sequence of Recombinant-hTSP1 (P07996 19-1170 limits assumed): as above
Description: First, 500 μM NiCl₂ was injected over an NTA-Chip (produced by GE Healthcare, BR100532) at a flow rate of 5 μL/min. for 1 minute to thereby activate NTA groups. Then, an EDC/NHS mixture was injected at a flow rate of 10 μL/min. for 7 minutes to thereby activate the carboxyl groups of dextran. Recombinant-hTSP1 was injected at a flow rate of 10 μL/min. for 7 minutes to immobilize the TSP1 on the substrate surfaces with activated NTA and carboxyl groups. Ethanolamine was injected at a flow rate of 10 μL/min. for 7 minutes to thereby deactivate unreacted, activated carboxyl groups.
Since Biacore T200 is highly responsive to change in DMSO concentrations, DMSO solutions were sequentially injected at concentrations of 4%, 4.4%, 4.8%, 5.2%, 5.6%, and 6% to correct for DMSO effects.
The analysis was conducted using the evaluation software provided with Biacore T100 and T200. A DMSO correction curve obtained by solvent correction measurements was applied for the analysis. Kinetics fitting was done on the difference data obtained by subtracting the baseline data from sample measurement data.

[3] = molecular target: T1, Thrombospondin human platelet …; test: cell-based or functional assay; remark: listed apart in the source

Row | Binder | Cell adhesion IC50 [1] [nM] | Kd [2] [nM] | Cell adhesion IC50 [3] [nM]
1 | B1 | 20.8 | 0.25 | –
2 | B2 | 25.5 | 0.15 | –
3 | B3 | 26.3 | 0.14 | –
4 | B4 | 20.6 | 0.12 | –
5 | B5 | 27.3 | 0.44 | –
6 | B6 | 27.3 | 0.23 | –
7 | B7 | 33.4 | 0.9 | –
8 | B8 | 34.9 | 0.51 | –
9 | B9 | 11.2 | 0.26 | –
10 | B10 | 10.9 | 0.091 | –
11 | {CH2CO}-FISGRNWV[3MH]WVC-NH2 (thioether N-12) [Compound 46] | – | – | 30.3
12 | B11 | – | – | 11.5
13 | B12 | – | – | 10.4
14 | B13 | – | – | 11.6
15 | B14 | – | – | 16.3
16 | {CH2CO}-FISGRNWV[AMF]WVC-NH2 (thioether N-12; reading uncertain) [Compound 47] | – | – | 16.7
